Laboratory results: patent US20140271675A1 (Eli Lilly, published 2014)

Assays:
mouse VEGFR1 [1] = target: T1, mouse VEGFR1 (Mouse, UniProt P35969 23-759, limits assumed); test: SPR (Biacore), 25 C, n=1
T1 construct: also called VEGFR1 Mouse
T1 sequence (looked up): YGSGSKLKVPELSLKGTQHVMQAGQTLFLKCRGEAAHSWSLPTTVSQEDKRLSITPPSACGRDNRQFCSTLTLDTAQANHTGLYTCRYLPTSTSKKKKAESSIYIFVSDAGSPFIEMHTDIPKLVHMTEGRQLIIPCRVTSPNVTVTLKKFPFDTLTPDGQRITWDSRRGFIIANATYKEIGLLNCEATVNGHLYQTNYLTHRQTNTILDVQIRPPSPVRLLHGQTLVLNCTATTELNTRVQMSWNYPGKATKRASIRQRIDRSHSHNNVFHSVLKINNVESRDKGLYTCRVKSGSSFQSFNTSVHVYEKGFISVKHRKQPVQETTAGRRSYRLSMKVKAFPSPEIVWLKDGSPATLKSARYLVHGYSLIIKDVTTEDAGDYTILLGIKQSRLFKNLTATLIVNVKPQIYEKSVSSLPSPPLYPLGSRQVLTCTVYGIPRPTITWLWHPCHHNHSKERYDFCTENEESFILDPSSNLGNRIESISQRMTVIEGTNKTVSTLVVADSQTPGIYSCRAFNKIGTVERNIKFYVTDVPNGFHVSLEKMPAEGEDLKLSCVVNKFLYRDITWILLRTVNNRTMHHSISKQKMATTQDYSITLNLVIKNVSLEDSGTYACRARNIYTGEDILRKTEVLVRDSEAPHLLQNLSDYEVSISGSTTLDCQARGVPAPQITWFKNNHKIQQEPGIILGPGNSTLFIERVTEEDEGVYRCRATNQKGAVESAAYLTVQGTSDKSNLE

human VEGFR3 = target: T2, human VEGFR3 (Human, UniProt P35916 25-776, limits assumed); test: SPR (Biacore), 25 C
T2 construct: also called VEGFR3 Human
T2 sequence (looked up): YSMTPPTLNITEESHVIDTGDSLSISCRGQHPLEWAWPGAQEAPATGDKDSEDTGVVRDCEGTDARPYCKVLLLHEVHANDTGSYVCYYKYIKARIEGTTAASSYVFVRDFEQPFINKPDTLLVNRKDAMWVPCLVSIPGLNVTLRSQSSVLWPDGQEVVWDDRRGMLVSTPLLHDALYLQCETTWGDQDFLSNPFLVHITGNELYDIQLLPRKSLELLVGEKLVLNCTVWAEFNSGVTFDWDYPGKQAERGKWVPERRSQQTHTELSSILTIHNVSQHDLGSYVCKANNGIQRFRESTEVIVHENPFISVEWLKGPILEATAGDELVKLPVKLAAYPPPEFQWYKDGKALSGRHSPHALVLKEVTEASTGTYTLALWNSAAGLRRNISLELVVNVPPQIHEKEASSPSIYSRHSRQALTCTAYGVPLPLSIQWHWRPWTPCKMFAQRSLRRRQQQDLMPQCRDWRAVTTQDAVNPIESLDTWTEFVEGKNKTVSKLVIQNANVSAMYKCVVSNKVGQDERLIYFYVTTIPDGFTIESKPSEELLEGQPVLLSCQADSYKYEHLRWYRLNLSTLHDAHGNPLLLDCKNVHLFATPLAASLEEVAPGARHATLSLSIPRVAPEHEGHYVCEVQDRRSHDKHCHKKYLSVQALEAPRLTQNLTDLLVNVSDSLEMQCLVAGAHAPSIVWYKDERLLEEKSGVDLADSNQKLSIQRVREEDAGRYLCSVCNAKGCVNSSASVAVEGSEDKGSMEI

mouse VEGFR3 = target: T3, mouse VEGFR3 (Mouse, UniProt P35917 25-775, limits assumed); test: SPR (Biacore), 25 C
T3 construct: also called VEGFR3 Mouse
T3 sequence (looked up): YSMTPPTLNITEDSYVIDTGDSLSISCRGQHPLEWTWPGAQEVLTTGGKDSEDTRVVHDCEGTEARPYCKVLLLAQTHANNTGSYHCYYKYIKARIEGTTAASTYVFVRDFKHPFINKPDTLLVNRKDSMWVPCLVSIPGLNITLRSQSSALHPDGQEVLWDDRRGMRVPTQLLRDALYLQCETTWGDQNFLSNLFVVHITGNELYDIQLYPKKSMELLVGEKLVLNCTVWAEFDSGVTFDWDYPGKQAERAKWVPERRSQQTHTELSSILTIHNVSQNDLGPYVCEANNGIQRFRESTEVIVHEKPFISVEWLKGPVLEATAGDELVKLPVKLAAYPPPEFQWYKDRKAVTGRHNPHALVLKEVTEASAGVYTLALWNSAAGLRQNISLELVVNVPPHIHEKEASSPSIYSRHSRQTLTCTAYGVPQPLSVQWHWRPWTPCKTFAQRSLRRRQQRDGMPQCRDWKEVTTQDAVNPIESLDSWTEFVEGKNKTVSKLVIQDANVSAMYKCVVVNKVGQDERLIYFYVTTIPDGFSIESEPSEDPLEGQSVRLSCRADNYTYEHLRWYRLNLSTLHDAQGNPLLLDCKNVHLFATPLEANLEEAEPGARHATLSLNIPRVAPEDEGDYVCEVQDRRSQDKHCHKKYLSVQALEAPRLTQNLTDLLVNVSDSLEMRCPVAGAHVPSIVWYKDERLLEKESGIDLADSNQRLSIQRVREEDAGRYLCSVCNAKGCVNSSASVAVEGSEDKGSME

[2] = target: T4, human VEGFR1 (SPR analyte/ligand) (human, UniProt P17948 27-758, limits assumed); test: SPR (Biacore), 25 C
T4 construct: also called VEGFR1 Human; Flt-1
T4 sequence (P17948 27-758 limits assumed): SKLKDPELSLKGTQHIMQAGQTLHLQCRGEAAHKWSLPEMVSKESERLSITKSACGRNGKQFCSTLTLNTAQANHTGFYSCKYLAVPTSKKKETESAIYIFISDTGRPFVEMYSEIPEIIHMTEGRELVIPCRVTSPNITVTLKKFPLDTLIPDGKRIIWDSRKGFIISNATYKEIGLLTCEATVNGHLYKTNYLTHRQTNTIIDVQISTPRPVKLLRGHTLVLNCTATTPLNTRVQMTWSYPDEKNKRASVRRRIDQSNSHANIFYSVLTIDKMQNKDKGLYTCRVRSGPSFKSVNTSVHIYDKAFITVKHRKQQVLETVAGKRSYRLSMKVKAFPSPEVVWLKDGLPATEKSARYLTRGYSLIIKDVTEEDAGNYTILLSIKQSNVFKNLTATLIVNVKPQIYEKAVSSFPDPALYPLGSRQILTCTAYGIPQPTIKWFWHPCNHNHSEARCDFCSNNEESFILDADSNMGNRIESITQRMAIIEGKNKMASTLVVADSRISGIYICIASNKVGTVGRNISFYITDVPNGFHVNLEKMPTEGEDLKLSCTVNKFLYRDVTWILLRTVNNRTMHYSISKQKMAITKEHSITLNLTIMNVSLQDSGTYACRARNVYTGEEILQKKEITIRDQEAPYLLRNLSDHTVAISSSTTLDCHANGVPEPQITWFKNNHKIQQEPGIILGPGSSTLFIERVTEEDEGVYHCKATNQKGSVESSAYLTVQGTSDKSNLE

human VEGFR2 = target: T5, human VEGFR2 (Human, UniProt P35968 20-764, limits assumed); test: SPR (Biacore), 25 C
T5 construct: also called VEGFR2 Human
T5 sequence (P35968 20-764 limits assumed): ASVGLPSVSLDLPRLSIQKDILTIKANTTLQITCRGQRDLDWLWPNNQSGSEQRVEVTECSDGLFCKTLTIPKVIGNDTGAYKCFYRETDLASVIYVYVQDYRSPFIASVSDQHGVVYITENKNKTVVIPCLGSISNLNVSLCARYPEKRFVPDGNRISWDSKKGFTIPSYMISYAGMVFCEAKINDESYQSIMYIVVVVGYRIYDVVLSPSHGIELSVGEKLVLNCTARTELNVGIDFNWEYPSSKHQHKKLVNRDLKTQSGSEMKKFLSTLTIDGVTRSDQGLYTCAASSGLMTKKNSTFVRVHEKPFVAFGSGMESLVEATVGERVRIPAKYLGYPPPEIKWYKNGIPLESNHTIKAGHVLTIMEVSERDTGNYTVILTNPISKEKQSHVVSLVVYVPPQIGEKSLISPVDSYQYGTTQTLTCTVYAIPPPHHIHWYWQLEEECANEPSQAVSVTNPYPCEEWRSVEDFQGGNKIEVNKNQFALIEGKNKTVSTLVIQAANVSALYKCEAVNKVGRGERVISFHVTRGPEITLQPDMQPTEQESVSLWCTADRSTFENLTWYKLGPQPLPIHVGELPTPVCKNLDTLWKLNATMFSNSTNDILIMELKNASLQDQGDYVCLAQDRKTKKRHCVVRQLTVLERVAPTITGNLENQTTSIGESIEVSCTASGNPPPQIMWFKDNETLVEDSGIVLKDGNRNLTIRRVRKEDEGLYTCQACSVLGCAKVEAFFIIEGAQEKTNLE

mouse VEGFR2 = target: T6, mouse VEGFR2 (Mouse, UniProt P35918 20-762, limits assumed); test: SPR (Biacore), 25 C
T6 construct: also called VEGFR2 Mouse
T6 sequence (P35918 20-762 limits assumed): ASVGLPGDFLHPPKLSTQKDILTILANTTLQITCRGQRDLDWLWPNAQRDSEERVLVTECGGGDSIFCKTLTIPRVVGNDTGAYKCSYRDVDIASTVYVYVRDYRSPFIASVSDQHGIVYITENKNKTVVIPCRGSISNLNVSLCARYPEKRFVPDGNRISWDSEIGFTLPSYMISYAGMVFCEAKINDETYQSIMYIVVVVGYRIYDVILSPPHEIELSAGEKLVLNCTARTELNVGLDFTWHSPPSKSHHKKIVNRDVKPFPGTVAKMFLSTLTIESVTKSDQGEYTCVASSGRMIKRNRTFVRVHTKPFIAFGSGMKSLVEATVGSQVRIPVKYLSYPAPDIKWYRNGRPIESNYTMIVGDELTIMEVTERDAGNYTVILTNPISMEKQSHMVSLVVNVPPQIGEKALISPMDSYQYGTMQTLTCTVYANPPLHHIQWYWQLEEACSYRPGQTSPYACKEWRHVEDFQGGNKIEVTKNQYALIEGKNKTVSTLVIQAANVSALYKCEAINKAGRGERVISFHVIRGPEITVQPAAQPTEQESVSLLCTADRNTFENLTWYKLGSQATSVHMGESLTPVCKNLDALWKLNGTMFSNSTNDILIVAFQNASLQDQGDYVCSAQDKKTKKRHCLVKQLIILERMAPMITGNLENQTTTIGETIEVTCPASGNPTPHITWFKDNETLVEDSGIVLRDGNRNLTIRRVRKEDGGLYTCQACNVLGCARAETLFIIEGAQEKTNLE

mouse VEGFR1 [3] = target: T1, mouse VEGFR1; test: SPR (Biacore), 25 C, n=4

Binder	Kd (mouse VEGFR1 [1])	koff (mouse VEGFR1 [1])	binding result (human VEGFR3)	binding result (mouse VEGFR3)	binding result [2]	binding result (human VEGFR2)	binding result (mouse VEGFR2)	Kd (mouse VEGFR1 [3])	koff (mouse VEGFR1 [3])
Antibody III (antibody, also called Ab III; Antibody 3) heavy: QVQLKESGPGLVRPSETLSLTCTVSGFSLSDYSLSWVRRPSGKGPEWLGRLWFDGDTTYNSAFKSRLTISRDTSKDQVFLKMNSLQTDDTGTYYCTRDDRDFDYWGQGVMVTVSSAETTAPSVYPLAPGTALKSNSMVTLGCLVKGYFPEPVTVTWNSGALSSGVHTFPAVLQSGLYTLTSSVTVPSSTWPSQTVTCNVAHPASSTKVDKKIVPRNCGGDCKPCICTGSEVSSVFIFPPKPKDVLTITLTPKVTCVVVDISQDDPEVHFSWFVDDVEVHTAQTRPPEEQFNSTFRSVSELPILHQDWLNGRTFRCKVTSAAFPSPIEKTISKPEGRTQVPHVYTMSPTKEEMTQNEVSITCMVKGFYPPDIYVEWQMNGQPQENYKNTPPTMDTDGSYFLYSKLNVKKEKWQQGNTFTCSVLHEGLHNHHTEKSLSHSPGK light: DIVMTQTPVSMSVSLGGQVSISCRSSQSLVNNNGNTYLSWYIQKPSQSPQLLIYKVSNRVSGISDRFSGSGSGTDFTLKINKIEPDDLGVYYCGQNTQYPLTFGSGTKLEIKRADAAPTVSIFPPSTEQLATGGASVVCLMNNFYPRDISVKWKIDGTERRDGVLDSVTDQDSKDSTYSMSSTLSLTKADYESHNLYTCEVVHKTSSSPVVKSFNRNEC	0.032 nM	1.87e-05 s⁻¹							
Antibody IV (antibody, mouse IgG1, kappa, also called Ab IV; Antibody 4) heavy: QVQLKESGPGLVRPSETLSLTCTVSGFSLSDYSLSWVRRPSGKGPEWLGRLWFDGDTTYNSAFKSRLTISRDTSKDQVFLKMNSLQTDDTGTYYCTRDDRDFDYWGQGVMVTVSSAKTTPPSVYPLAPGSAAQTNSMVTLGCLVKGYFPEPVTVTWNSGSLSSGVHTFPAVLQSDLYTLSSSVTVPSSTWPSETVTCNVAHPASSTKVDKKIVPRDCGCKPCICTVPEVSSVFIFPPKPKDVLTITLTPKVTCVVVDISKDDPEVQFSWFVDDVEVHTAQTQPREEQFNSTFRSVSELPIMHQDWLNGKEFKCRVNSAAFPAPIEKTISKTKGRPKAPQVYTIPPPKEQMAKDKVSLTCMITDFFPEDITVEWQWNGQPAENYKNTQPIMDTDGSYFVYSKLNVQKSNWEAGNTFTCSVLHEGLHNHHTEKSLSHSPG light: DIVMTQTPVSMSVSLGGQVSISCRSSQSLVNNNGNTYLSWYIQKPSQSPQLLIYKVSNRVSGISDRFSGSGSGTDFTLKINKIEPDDLGVYYCGQNTQYPLTFGSGTKLEIKRADAAPTVSIFPPSSEQLTSGGASVVCFLNNFYPKDINVKWKIDGSERQNGVLNSWTDQDSKDSTYSMSSTLTLTKDEYERHNSYTCEATHKTSTSPIVKSFNRNEC			no binding (tested: ~200 nM)	no binding (tested: ~200 nM)	no binding (tested: ~200 nM)	no binding (tested: ~200 nM)	no binding (tested: ~200 nM)	≤ 0.018 nM	< 1e-05 s⁻¹
